According to publication PMC8383266 (Biochemistry, 2021):

Legend:
[1] = tested on: CC1(C)S[C@@H]2[C@H](NC(=O)[C@H](N)c3ccccc3)C(=O)N2[C@H]1C(=O)O; assay: purified protein; conditions: pH 6.4; 25.0 °C
[2] = tested on: O=C(Cc1cccs1)N[C@@H]1C(=O)N2C(C(=O)O)=C(/C=C/c3ccc([N+](=O)[O-])cc3[N+](=O)[O-])CS[C@H]12; assay: purified protein; conditions: pH 6.4; 25.0 °C

Substance: (Mycobacterium tuberculosis H37Rv)
- kcat [1]: 2.1 s⁻¹
- kcat/Km [1]: 17000 M⁻¹ s⁻¹
- Km [2]: 560 µM
- kcat [2]: 220 s⁻¹
- kcat/Km [2]: 390000 M⁻¹ s⁻¹
